Assay results taken from PMC7069074.

Target: T1, ERα (purified) (UniProt P03372)
T1 sequence: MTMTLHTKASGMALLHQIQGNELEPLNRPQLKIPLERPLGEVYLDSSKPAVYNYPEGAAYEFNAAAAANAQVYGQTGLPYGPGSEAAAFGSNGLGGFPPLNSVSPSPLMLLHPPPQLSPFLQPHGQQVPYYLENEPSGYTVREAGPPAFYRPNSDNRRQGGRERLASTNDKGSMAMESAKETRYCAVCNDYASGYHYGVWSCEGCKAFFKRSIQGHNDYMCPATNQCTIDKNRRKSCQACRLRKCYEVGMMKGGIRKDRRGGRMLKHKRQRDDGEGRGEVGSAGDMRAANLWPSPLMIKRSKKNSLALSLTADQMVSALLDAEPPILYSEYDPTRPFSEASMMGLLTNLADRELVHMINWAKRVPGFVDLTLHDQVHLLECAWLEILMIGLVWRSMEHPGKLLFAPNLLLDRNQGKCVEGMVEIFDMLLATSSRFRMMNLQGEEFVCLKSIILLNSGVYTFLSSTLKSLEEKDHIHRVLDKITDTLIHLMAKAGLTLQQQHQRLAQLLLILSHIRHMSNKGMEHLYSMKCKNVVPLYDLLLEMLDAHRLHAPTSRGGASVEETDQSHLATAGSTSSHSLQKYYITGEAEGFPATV
Assay: EMSA (1% agarose, ethidium bromide)
Details: EMSA: 0.1 M KCl, 1 mM DTT, 1 mM MgCl2, 10 mM HEPES pH 7.6, 37 °C, 30 min; pull-down: lysate in 5 mM PIPES, 85 mM KCl, 0.5% NP-40, 2 mM PMSF, 4 °C overnight …

AACGGAGTGTAGTCGGCTGACCCCTAGCATAGAGCAGTGCTGTTGGCTACTAACCACACCTCTCTACCTCTTTCTTACTCTAATATTACCCACCACAACAGCCAGAAAGTTCTTTTGAGAACATCTATCTGATCATGACACTGTCTTACTTAAAATCTTCCAGTGACTACTATTACCCTTAGGGTAGTCCAGATTCCATAATGTGGTTTACTGGACTCTATGACTTCTAAGAGAAGTCTTAGAGT (double strand) [YB-1 promoter]
binding: binds
